Article PMC12720783 (Protein Science : A Publication of the Protein Society, 2025)

B1: LcrV with a deletion of the N-terminal domain (domain or fragment)
chain: SKLREELAELTAELKIYSVIQAEINKHLSSGGTINIHDKSINLMDKNLYGYTDEEIFKASAEYKILEKMPQTTIQEGETEKKIVSIKNFLESEKKRTGALGNLKDSYSYNKDNNELSHFATTCSDKSRPLNDLVSQKTTQLSDITSRFNSAIEALNRFIQKYDSVMQRLLDDTSGK
B2: LcrG, full length (natural protein)
chain: MKSSHFDEYDKTLKQAELAIADSDHRAKLLQEMCADIGLTPEAVMKIFAGRSAEEIKPAERELLDEIKRQRERQPQHPYDGKRPRKPTMMRGQII

Legend:
[1] = target: the molecule itself; experiment: […]; 50 mM NaCl, 30 mM phosphate buffer, 1 mM TCEP
[2] = target: B1; experiment: ITC; […] ([…]) […] ([…]) […]; 25°C; 30 mM phosphate buffer, 50 mM NaCl, 1 mM TCEP, pH 7.0; conditions: both partners purified
[3] = target: LcrV with a deletion of the N-terminal 23 residues (Yersinia pseudotuberculosis, UniProt P23994 24-326); experiment: as above; conditions: both partners purified
LcrV, full length = LcrV, full length (Yersinia pseudotuberculosis, UniProt P23994 1-326); experiment: ITC; conditions: both partners purified

Row | Binder | stoichiometry N [1] | Kd [2] | Kd [3] | Kd (LcrV, full length)
1 | B1 | 3 |  |  | 
2 | B2 |  | ≤ 0.01 µM | 0.054 ± 0.0088 µM | 0.127 ± 0.063 µM
